From patent US20240368267A1 (KODIAK SCIENCES, published 2024)
Where a chain is given by its changes, count along the chain named. In names and notes the source's numbering stands.

B1: anti-IL-6 antibody, heavy chain T65A, G66D / light chain WT (antibody, human IgG1, V domains shown)
VH: EVQLVESGGGLVQPGGSLRLSCAASGFTFSPFAMSWVRQAPGKGLEWVAKISPGGSWTYYSDTVADRFTFSLDTSKSTAYLQMNSLRAEDTAVYYCARQLWGYYALDIWGQGTLVTVSS
VL: DIQLTQSPSSLSASVGDRVTITCSASISVSYMYWYQQKPGKAPKLLIYDMSNLASGVPSRFSGSGSGTDFTLTISSLQPEDFATYYCMQWSGYPYTFGQGTKVEIK
notes: Derived as m2; Engineered human IgG1
B2: anti-IL-6 antibody, heavy chain T65W, G66D / light chain WT (antibody, human IgG1, V domains shown)
VH: B1 VH with A65W
VL: B1 VL
notes: as for B1
B3: anti-IL-6 antibody, heavy chain T65K, G66D / light chain WT (antibody, human IgG1, V domains shown)
VH: B1 VH with A65K
VL: B1 VL
notes: as for B1
B4: anti-IL-6 antibody, heavy chain T65R, G66D / light chain WT (antibody, human IgG1, V domains shown)
VH: B1 VH with A65R
VL: B1 VL
notes: as for B1
B5: anti-IL-6 antibody, heavy chain T65F, G66D / light chain WT (antibody, human IgG1, V domains shown)
VH: B1 VH with A65F
VL: B1 VL
notes: as for B1
B6: anti-IL-6 antibody, heavy chain T65H, G66D / light chain WT (antibody, human IgG1, V domains shown)
VH: B1 VH with A65H
VL: B1 VL
notes: as for B1
B7: anti-IL-6 antibody, heavy chain T65P, G66D / light chain WT (antibody, human IgG1, V domains shown)
VH: B1 VH with A65P
VL: B1 VL
notes: as for B1
B8: anti-IL-6 antibody, heavy chain T65Y, G66D / light chain WT (antibody, human IgG1, V domains shown)
VH: B1 VH with A65Y
VL: B1 VL
notes: as for B1
B9: anti-IL-6 antibody, heavy chain T65G, G66D / light chain WT (antibody, human IgG1, V domains shown)
VH: B1 VH with A65G
VL: B1 VL
notes: as for B1
B10: anti-IL-6 antibody, heavy chain T65E, G66D / light chain WT (antibody, human IgG1, V domains shown)
VH: B1 VH with A65E
VL: B1 VL
notes: as for B1
B11: anti-IL-6 antibody, heavy chain T65S, G66D / light chain WT (antibody, human IgG1, V domains shown)
VH: B1 VH with A65S
VL: B1 VL
notes: as for B1
B12: anti-IL-6 antibody, heavy chain T65V, G66D / light chain WT (antibody, human IgG1, V domains shown)
VH: B1 VH with A65V
VL: B1 VL
notes: as for B1
B13: anti-IL-6 antibody, heavy chain T65D, G66D / light chain WT (antibody, human IgG1, V domains shown)
VH: B1 VH with A65D
VL: B1 VL
notes: as for B1
B14: anti-IL-6 antibody, heavy chain T65L, G66D / light chain WT (antibody, human IgG1, V domains shown)
VH: B1 VH with A65L
VL: B1 VL
notes: as for B1

Biological target: T1, human IL-6 (human, UniProt P05231 30-212)
T1 construct: also called interleukin-6
T1 sequence (P05231 30-212 limits assumed): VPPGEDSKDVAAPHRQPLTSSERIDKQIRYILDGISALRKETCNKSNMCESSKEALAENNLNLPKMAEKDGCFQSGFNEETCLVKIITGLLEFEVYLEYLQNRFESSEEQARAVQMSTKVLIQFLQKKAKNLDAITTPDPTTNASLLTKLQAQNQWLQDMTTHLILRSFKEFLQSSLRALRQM
Test: SPR (Biacore T200), antibody from cell supernatant captured on Protein A, IL-6 flowed over, 37 C
Method: Those four positions were selected based on their tolerance for mutations as observed in bacterial and mammalian screens. […] These cultures were centrifuged and supernatants containing secreted antibodies were harvested and diluted in HBS-EP+ running buffer (1:20 ratio).
Antibodies were captured on a Protein A chip (GE) by injecting 1:20 cell supernatant dilutions at 10 μL/min for 60 seconds. […] The sensor chip was regenerated by a 60 seconds injection of 10 mM Glycine pH 1.7 at the flow rate of […]. […] For this setup, 1 μg/mL of purified antibody was injected over a Protein A chip at 10 μL/min for 25 seconds. […] The sensor chip was regenerated by a 60 seconds injection of 10 mM Glycine pH 1.7 at flow rate of 50 μL/min. Data analysis for supernatant and purified samples were performed using BIAevaluation software (GE). All sensorgrams were double reference subtracted and fit using a 1:1 Langmuir binding model.

| Binder | Kd [pM] | koff [s⁻¹] | kon [M⁻¹ s⁻¹] |
| --- | --- | --- | --- |
| B1 | 222 | 0.000364 | 1.64e+06 |
| B2 | 226 | 0.00037 | 1.64e+06 |
| B3 | 262 | 0.000412 | 1.57e+06 |
| B4 | 222 | 0.000444 | 2e+06 |
| B5 | 223 | 0.000348 | 1.56e+06 |
| B6 | 219 | 0.000356 | 1.63e+06 |
| B7 | 369 | 0.000568 | 1.54e+06 |
| B8 | 224 | 0.000361 | 1.61e+06 |
| B9 | 123 | 0.000218 | 1.77e+06 |
| B10 | 194 | 0.000427 | 2.2e+06 |
| B11 | 210 | 0.000383 | 1.82e+06 |
| B12 | 175 | 0.000504 | 2.88e+06 |
| B13 | 203 | 0.000442 | 2.18e+06 |
| B14 | 212 | 0.000375 | 1.77e+06 |
